T1: chicken egg white ovalbumin (chicken, UniProt P01012 1-386)
T1 construct: Printed on the microarray at 0.5 mg/mL; source: bought: Sigma-Aldrich
T1 sequence (looked up): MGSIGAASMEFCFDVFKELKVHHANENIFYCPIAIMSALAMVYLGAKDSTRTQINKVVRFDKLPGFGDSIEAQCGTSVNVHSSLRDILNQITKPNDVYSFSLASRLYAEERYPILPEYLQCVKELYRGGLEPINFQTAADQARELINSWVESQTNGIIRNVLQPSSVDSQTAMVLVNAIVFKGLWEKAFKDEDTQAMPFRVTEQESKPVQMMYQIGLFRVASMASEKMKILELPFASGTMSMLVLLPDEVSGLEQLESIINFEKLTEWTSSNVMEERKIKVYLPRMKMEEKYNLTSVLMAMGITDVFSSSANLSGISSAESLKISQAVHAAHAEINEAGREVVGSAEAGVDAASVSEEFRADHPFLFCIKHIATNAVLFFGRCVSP

T2: Phaseolus vulgaris leucoagglutinin (Phaseolus vulgaris, UniProt P05087 21-272, TRITC label)
T2 construct: Phaseolus vulgaris leucoagglutinin; also called PHA-L; source: bought: EY Laboratories or Vector Laboratories (TRITC-labelled)
T2 sequence: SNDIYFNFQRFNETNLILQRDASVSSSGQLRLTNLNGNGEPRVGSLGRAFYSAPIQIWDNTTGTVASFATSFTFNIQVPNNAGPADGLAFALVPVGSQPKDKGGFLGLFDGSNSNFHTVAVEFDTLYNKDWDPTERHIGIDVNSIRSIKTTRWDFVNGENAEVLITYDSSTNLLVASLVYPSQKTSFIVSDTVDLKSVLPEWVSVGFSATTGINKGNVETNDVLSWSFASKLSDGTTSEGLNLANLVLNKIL

B1: Phaseolus vulgaris erythroagglutinin (natural protein)
chain: ASQTSFSFQRFNETNLILQRDATVSSKGQLRLTNVNDNGEPTLSSLGRAFYSAPIQIWDNTTGAVAASPTSFTFNIDVPNNSGPADGLAFVLLPVGSQPKDKGGLLGLFNNYKYDSNAHTVAVEFDTLYNVHWDPKPRHIGIDVNSIKSIKTTTWDFVKGENAEVLITYDSSTKLLVASLVYPSLKTSFIVSDTVDLKSVLPEWVIVGFTATTGITKGNVETNDILSWSFASKLSDGTTSEALNLANFALNQIL
modifications: TRITC label
notes: Phaseolus vulgaris erythroagglutinin; also called PHA-E; source: bought: EY Laboratories or Vector Laboratories (TRITC-labelled)
B2: chicken egg white ovomucoid (natural protein, UniProt P01005 25-210, looked up)
chain: AEVDCSRFPNATDKEGKDVLVCNKDLRPICGTDGVTYTNDCLLCAYSIEFGTNISKEHDGECKETVPMNCSSYANTTSEDGKVMVLCNRAFNPVCGTDGVTYDNECLLCAHKVEQGASVDKRHDGGCRKELAAVSVDCSEYPKPDCTAEDRPLCGSDNKTYGNKCNFCNAVVESNGTLTLSHFGKC
notes: Printed on the microarray at 0.5 mg/mL; also called OVM; source: bought: Sigma-Aldrich

Columns and labels:
Assay in all cases: peptide or protein array
Settings in all cases: both partners purified
[1] = biological target: T1, chicken egg white ovalbumin
[2] = biological target: T2, Phaseolus vulgaris leucoagglutinin
[3] = biological target: B1

B1
binding result [1]: binds

B2
binding result [2]: binds
binding result [3]: binds

From PMC5526940 (Scientific Reports, 2017)
